Measured values reported in the supplement of paper PMC9112550, “Optimization of the antimicrobial peptide Bac7 by deep mutational scanning” (BMC Biology, 2022).

System: Escherichia coli TOP10
Assay: shrunken log2 fold change of peptide-encoding DNA abundance (4.5 h post-induction vs induction); higher = less antimicrobial activity (less host growth inhibition)
Conditions: time post-induction: 4.5 h; library: site-saturation at positions 5, 18, 19, 20
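Further: peptides expressed intracellularly from a pBAD plasmid library in pooled LB shake-flask culture, induced with 0.3% L-arabinose, DNA abundance read by NGS, three biological replicates, DESeq2 with apeglm shrinkage.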

Sequence | shrunken log2 fold change
RRIRDRPPRLPRPRPRPGTLPRP | -0.00146
RRIRDRPPRLPRPRPRPGVFPRP | -0.00239
RRIRDRPPRLPRPRPRPGWDPRP | -0.182
RRIRDRPPRLPRPRPRPGWIPRP | 0.19
RRIRDRPPRLPRPRPRPGYAPRP | 0.137
RRIRDRPPRLPRPRPRPHCWPRP | 0.15
RRIRDRPPRLPRPRPRPHDRPRP | -0.00543
RRIRDRPPRLPRPRPRPHDSPRP | -0.00201
RRIRDRPPRLPRPRPRPHKWPRP | -0.202
RRIRDRPPRLPRPRPRPHLSPRP | 0.0479
RRIRDRPPRLPRPRPRPHMAPRP | -0.232
RRIRDRPPRLPRPRPRPHMIPRP | -0.125
RRIRDRPPRLPRPRPRPHMLPRP | -0.144
RRIRDRPPRLPRPRPRPHMSPRP | -0.00968
RRIRDRPPRLPRPRPRPHNHPRP | -0.612
RRIRDRPPRLPRPRPRPHNRPRP | -0.00159
RRIRDRPPRLPRPRPRPHPAPRP | 0.145
RRIRDRPPRLPRPRPRPHQHPRP | -0.308
RRIRDRPPRLPRPRPRPHQKPRP | 0.365
RRIRDRPPRLPRPRPRPHQSPRP | 0.0679
RRIRDRPPRLPRPRPRPHRPPRP | 0.0369
RRIRDRPPRLPRPRPRPHRQPRP | -0.0279
RRIRDRPPRLPRPRPRPHRWPRP | 0.00819
RRIRDRPPRLPRPRPRPHVFPRP | -0.0358
RRIRDRPPRLPRPRPRPHVSPRP | 0.27
RRIRDRPPRLPRPRPRPHWDPRP | -0.0788
RRIRDRPPRLPRPRPRPHYHPRP | -0.806

Sequence | shrunken log2 fold change
RRIRDRPPRLPRPRPRPHYIPRP | -1.02
RRIRDRPPRLPRPRPRPHYTPRP | -0.73
RRIRDRPPRLPRPRPRPIAMPRP | 0.384
RRIRDRPPRLPRPRPRPIAQPRP | -0.0679
RRIRDRPPRLPRPRPRPIAVPRP | -0.00168
RRIRDRPPRLPRPRPRPICAPRP | 0.172
RRIRDRPPRLPRPRPRPIEPPRP | -0.0685
RRIRDRPPRLPRPRPRPIFFPRP | 0.0831
RRIRDRPPRLPRPRPRPIGFPRP | 0.0229
RRIRDRPPRLPRPRPRPIIKPRP | -0.0129
RRIRDRPPRLPRPRPRPIINPRP | 0.423
RRIRDRPPRLPRPRPRPILHPRP | -0.0215
RRIRDRPPRLPRPRPRPILSPRP | -0.216
RRIRDRPPRLPRPRPRPILYPRP | -0.131
RRIRDRPPRLPRPRPRPIMSPRP | -0.0134
RRIRDRPPRLPRPRPRPINVPRP | 0.0039
RRIRDRPPRLPRPRPRPIPDPRP | -0.0185
RRIRDRPPRLPRPRPRPIPEPRP | -0.138
RRIRDRPPRLPRPRPRPIQWPRP | -0.153
RRIRDRPPRLPRPRPRPIRHPRP | -0.0425
RRIRDRPPRLPRPRPRPIRQPRP | 0.193
RRIRDRPPRLPRPRPRPISMPRP | 0.0543
RRIRDRPPRLPRPRPRPITWPRP | 0.098
RRIRDRPPRLPRPRPRPIVAPRP | -0.0201
RRIRDRPPRLPRPRPRPIVHPRP | -0.25
RRIRDRPPRLPRPRPRPIVIPRP | -0.259
RRIRDRPPRLPRPRPRPIVQPRP | -0.267
